{"source": "patent US11986516B2", "about": "“Compositions and methods for treatment of SARS-COV-2” (priority 2021, dated 2024)", "key": {"IL-1α [1]": {"test_system": "IL-1α", "assay": "EpiDerm skin irritation, IL-1α secretion (Quantikine ELISA)", "type": "cell-based, human", "details": "EpiDerm cultures, media collected after 24 hours; rhACE-2 2.5-40 μg/ml"}, "[2]": {"test_system": "human reconstructed nasal epithelium model (NAS-100-BETA by MatTek)", "assay": "Nasal irritation, MTT tissue viability", "type": "cell-based", "experimental": "(§1) The formulations were performed using an increased dosage (e.g., 40-50 μg) compared to the study in Example 3.\n(§2) Cultures were maintained and treated topically and at the end of the treatment, tissue viability was determined using the MTT conversion assay as described in Example 3. The Relative Tissue Viability values were determined and used to classify the test articles as irritant or non-irritants according to the assay criteria. As a secondary output, levels of the proinflammatory mediator IL-1α were determined as described in Example 3."}, "[3]": {"test_system": "EpiDerm™ cultures (EPI-200)", "assay": "In Vitro EpiDerm Skin Irritation Test (EPI-200-SIT), MTT tissue viability", "type": "cell-based, human"}, "[4]": {"test_system": "hCoV-19/USA-WA1/2020 (WA)", "type": "cell-based, SARS-CoV-2", "details": "in µg/mL"}, "[5]": {"test_system": "hCoV-19/South Africa/KRISP-K005325/2020 (SA)", "type": "cell-based, SARS-CoV-2"}, "IL-1α [6]": {"test_system": "IL-1α", "assay": "Nasal irritation, IL-1α levels", "type": "cell-based, human", "experimental": "as §1, §2"}, "[7]": {"test_system": "reconstructed human skin model (Epiderm, EPI-200-X)", "assay": "Skin permeation of rhACE-2 (ACE-2 ELISA of receiving medium)", "type": "in vitro ADME", "details": "for skin permeation value (rhACE-2 in receiving medium): 50 μg/ml rhACE-2 in formulation", "experimental": "In order to determine the skin permeation profile, a reconstructed human skin model (Epiderm, EPI-200-X manufactured by MatTek Corporation) was used. This model includes normal, human-derived epidermal keratinocytes (NHEK) which have been cultured to form a multilayered, highly differentiated model of the human epidermis. The NHEK cells are cultured on specially-prepared cell culture inserts using serum free medium and attain levels of differentiation. The EpiDerm Skin Model closely parallels human skin, thus providing a useful in vitro means to assess dermal irritancy and toxicology.\nAfter an acclimation period, the skin cultures were treated in triplicates PBS (negative control/baseline), vehicle formulation (“Placebo”), and formulation containing 50 μg/ml ACE-2. At the end of each time point culture medium was completely removed and replaced with fresh medium. The amount of permeated ACE-2 over time was determined by ACE-2 ELISA. Levels of ACE-2 in the receiving medium were determined at the following timepoints: 0 minutes, 5 minutes, 30 minutes, 60 minutes, 180 minutes, 540 minutes, 1260 minutes, and 1440 minutes."}, "[8]": {"assay": "Visual solubility assessment of ACE-2 protein in liquid excipients", "type": "physicochemical", "details": "for Visual observation for solubility: 1.6 μg API in 3.0 g", "experimental": "The solubility of compounds in liquid excipients was determined using visual solubility protocol. In this method, about 3.0 g of excipients was accurately weighed in individually labelled 20 mL scintillation vials (USP Type-I). To these vials, accurately measured 1 (1.67 μg) aliquots of protein was added and tightly closed. […] The vials were kept at ambient temperature without agitation for 72 hours and visually inspected at 0, 24, and 72 hours."}, "[9]": {"test_system": "human nasal epithelial cultures (EpiAirway, NAS-100-beta)", "assay": "Nasal permeation of rhACE-2 (ELISA of receiving medium)", "type": "in vitro ADME", "details": "for nasal permeation value (rhACE-2 in receiving medium): 50 μg/ml rhACE-2 in formulation", "excerpt": "In order to determine the nasal permeation profile, human nasal epithelial cultures (EpiAirway, NAS-100-beta manufactured by MatTek Corporation) were used.\nAt the end of each time point, culture medium was completely removed and replaced with fresh medium."}}, "data": [{"compound": "CCCCCCCCCCCCOS(=O)(=O)[O-].[Na+]", "note": "[5% SDS]", "values": [{"measurement": "secretion of IL-1α", "setting": "IL-1α [1]", "result": "significant increase in IL-1α secretion"}, {"measurement": "mean viability of positive control tissues expressed as percentage of the negative control tissues", "setting": "[2]; nasal epithelium model", "result": 2, "unit": "%"}, {"measurement": "mean viability of positive control tissues expressed as percentage of the negative control tissues", "setting": "[3]", "result": 4, "unit": "%"}]}, {"compound": "ACE2", "values": [{"measurement": "EC50", "setting": "[4]", "result": 9.206}, {"measurement": "EC50", "setting": "[5]", "result": 1.18, "unit": "µg/mL"}]}, {"compound": "rhACE-2", "values": [{"measurement": "average IL-1α levels", "setting": "IL-1α [6]; rhACE-2 3.06 μg/ml", "result": 0, "unit": "ng/mL"}, {"measurement": "average IL-1α levels", "setting": "IL-1α [6]; rhACE-2 6.125 μg/ml", "result": 0, "unit": "ng/mL"}, {"measurement": "skin permeation value (rhACE-2 in receiving medium)", "setting": "[7]; 5 minutes post application", "result": 0.402, "unit": "ng/ml"}, {"measurement": "skin permeation value (rhACE-2 in receiving medium)", "setting": "[7]; 30 minutes post application", "result": 0.578, "unit": "ng/ml"}, {"measurement": "skin permeation value (rhACE-2 in receiving medium)", "setting": "[7]; 60 minutes post application", "result": 1.28, "unit": "ng/ml"}, {"measurement": "skin permeation value (rhACE-2 in receiving medium)", "setting": "[7]; 180 minutes post application", "result": 0.0196, "unit": "ng/ml"}, {"measurement": "skin permeation value (rhACE-2 in receiving medium)", "setting": "[7]; 540 minutes post application", "result": 0, "unit": "ng/ml"}, {"measurement": "skin permeation value (rhACE-2 in receiving medium)", "setting": "[7]; 1260 minutes post application", "result": 0.98, "unit": "ng/ml"}, {"measurement": "skin permeation value (rhACE-2 in receiving medium)", "setting": "[7]; 1440 minutes post application", "result": 0.029, "unit": "ng/ml"}, {"measurement": "permeation through reconstructed human skin tissue", "setting": "[7]; at 50 μg/ml", "result": "minimal to negligible permeation"}, {"measurement": "classification as nasal irritant", "setting": "[2]; all tested concentrations, 3.06-50 μg/ml", "result": "nasal non-irritants"}, {"measurement": "Visual observation for solubility", "setting": "[8]; in 1X PBS, 24 hr", "result": "Clear solution"}, {"measurement": "Visual observation for solubility", "setting": "[8]; in 1X PBS, 72 hr", "result": "Clear solution"}, {"measurement": "Visual observation for solubility", "setting": "[8]; in 1X PBS, Initial Observation", "result": "Clear solution"}, {"measurement": "Visual observation for solubility", "setting": "[8]; in Glycerin, 24 hr", "result": "Clear solution"}, {"measurement": "Visual observation for solubility", "setting": "[8]; in Glycerin, 72 hr", "result": "Clear solution"}, {"measurement": "Visual observation for solubility", "setting": "[8]; in Glycerin, Initial Observation", "result": "Clear solution"}, {"measurement": "Visual observation for solubility", "setting": "[8]; in Hexylene Glycol, 24 hr", "result": "Clear solution"}, {"measurement": "Visual observation for solubility", "setting": "[8]; in Hexylene Glycol, 72 hr", "result": "Clear solution"}, {"measurement": "Visual observation for solubility", "setting": "[8]; in Hexylene Glycol, Initial Observation", "result": "Clear solution"}, {"measurement": "Visual observation for solubility", "setting": "[8]; in Polyethylene Glycol 400, 24 hr", "result": "Clear solution"}, {"measurement": "Visual observation for solubility", "setting": "[8]; in Polyethylene Glycol 400, 72 hr", "result": "Clear solution"}, {"measurement": "Visual observation for solubility", "setting": "[8]; in Polyethylene Glycol 400, Initial Observation", "result": "Clear solution"}, {"measurement": "Visual observation for solubility", "setting": "[8]; in Polysorbate 20, 24 hr", "result": "Clear yellow"}, {"measurement": "Visual observation for solubility", "setting": "[8]; in Polysorbate 20, 72 hr", "result": "Clear yellow"}, {"measurement": "Visual observation for solubility", "setting": "[8]; in Polysorbate 20, Initial Observation", "result": "Clear yellow"}, {"measurement": "Visual observation for solubility", "setting": "[8]; in Propylene Glycol, 24 hr", "result": "Clear solution"}, {"measurement": "Visual observation for solubility", "setting": "[8]; in Propylene Glycol, 72 hr", "result": "Clear solution"}, {"measurement": "Visual observation for solubility", "setting": "[8]; in Propylene Glycol, Initial Observation", "result": "Clear solution"}, {"measurement": "Visual observation for solubility", "setting": "[8]; in Purified Water, USP, 24 hr", "result": "Clear solution"}, {"measurement": "Visual observation for solubility", "setting": "[8]; in Purified Water, USP, 72 hr", "result": "Clear solution"}, {"measurement": "Visual observation for solubility", "setting": "[8]; in Purified Water, USP, Initial Observation", "result": "Clear solution"}, {"measurement": "solubility in all the excipients tested", "setting": "[8]; propylene glycol, hexylene glycol, glycerin, polyethylene glycol 400, polysorbate 20, purified water, PBS", "result": "readily soluble"}, {"measurement": "nasal permeation value (rhACE-2 in receiving medium)", "setting": "[9]; 5 minutes post application", "result": 0.035, "unit": "ng/ml"}, {"measurement": "nasal permeation value (rhACE-2 in receiving medium)", "setting": "[9]; 180 minutes post application", "result": 0.06, "unit": "ng/ml"}, {"measurement": "nasal permeation value (rhACE-2 in receiving medium)", "setting": "[9]; 540 minutes post application", "result": 0.413, "unit": "ng/ml"}, {"measurement": "nasal permeation value (rhACE-2 in receiving medium)", "setting": "[9]; 1260 minutes post application", "result": 1.03, "unit": "ng/ml"}, {"measurement": "nasal permeation value (rhACE-2 in receiving medium)", "setting": "[9]; 1440 minutes post application", "result": 0.249, "unit": "ng/ml"}, {"measurement": "permeation through reconstructed human nasal tissue", "setting": "[9]; at 50 μg/ml", "result": "minimal to negligible permeation"}]}]}
